From the supplement of paper PMC11780869

System: Bacillus subtilis
Experiment: cleaved RNA product abundance (RNA/gDNA barcode ratio) relative to median wild-type variant (ratio to wild type); higher = more accumulation of the downstream cleavage product
Experimental: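 MPRA in B. subtilis. Mutagenized RNase Y cleavage-site regions (9% mutation rate) were inserted into a barcoded reporter mRNA (truncated aprE or tetM). Cells were grown in LB at 37°C to OD600 0.3. The cleaved RNA isoform was gel-purified and its barcodes counted; the RNA:gDNA barcode ratio was normalised to the median wild-type variant, and the median over barcodes is reported per variant. The printed sequence is the variable window only; the reporter flanks are not printed.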

[1] = experiment (reporter, strain, medium): exp 2b: truncated aprE reporter, strain BJT200, cleavage site: cggR-gapA (positions -7 to +36 mutated)
[2] = experiment (reporter, strain, medium): exp 4a: truncated aprE reporter, strain BJT201 with 2% xylose (RNase J1 expressed), cleavage site: cggR-gapA (positions -7 to +36 mutated)
[3] = experiment (reporter, strain, medium): exp 8a: truncated aprE reporter, strain BJT201 with 2% xylose (RNase J1 expressed), cleavage site: glnRA (positions -5 to +31 mutated)

Sequence | cleaved RNA product abundance [1] | cleaved RNA product abundance [2] | cleaved RNA product abundance [3]
ACAGACGAAGGAGCCGCAAAGAAGTTATTAAGGGATGAATAATCGCTCAATATTAATATCTCTCACTTATTTAAA | 0.0992 |  | 
ACAGACGAAGGAGCCGCAAAGATGTTATTAAGGGATTAATAATCCCTCAATATAAATATCTCTCACTTATTTAAA |  | 0.703 | 
ACAGACGAAGGAGCCGCAAAGAAGTTATTAAGGGATGAATAATCCCTCAATATACATCTCTCTCACTTATTTAAA |  | 0.206 | 
CGACATGTCCCGCTTCTTTCATTACTCCGTTATGAACTGTTTTCCTATATACATTTACCTTTTAAGAGGAGGAAT |  |  | 0.316
CGACATGTCCCGCTTCTTTCATTAATCTGTTAGCAACTGTTATCCTATATACATTTACCTTTTAAGAGGAGGAAT |  |  | 0.577
ACAGACGAAGGAGCCGCAAAGAAGTTTTTAAGGGATGAATAATCCATCAATATAAATATCTCTCACTTATTTAAA | 0.178 | 0.189 | 
CGACATGTCCCGCTTCTTTCATTATTCCGTTAGCAACTGTTTGGCTATATACATTTACCTTTTAAGAGGAGGAAT |  |  | 0.949
CGACATGTCCCGCTTCTTTCATTAATCCGTTATCAACTGTTTTGCTATATTCATTTACCTTTTAAGAGGAGGAAT |  |  | 0.246
CGACATGTCCCGCTTCTTTCATTAATCTGTTAGCAACTGTTTTGCTATATACATTTACCTTTTAAGAGGAGGAAT |  |  | 1.16
ACAGACGAAGGAGCCGCAAAGAAGTTATTAAGTGATGAATAATCGCTCAATATAAATATCTCTCACTTATTTAAA | 0.522 |  | 
ACAGACGAAGGAGCCGCAAAGAAGTTATTAAGGTATGAATAATCCCTCAAGATAAATATCTCTCACTTATTTAAA | 0.111 | 0.151 | 
ACAGACGAAGGAGCCGCAAAGAAGTTATTAAGTGATGAATAATCCGTCAATATAAATATCTCTCACTTATTTAAA | 0.103 | 0.0842 | 
ACAGACGAAGGAGCCGCAAAGAAGTTATTAAGGGATGAAGAATCCCCCAATATAAATATCTCTCACTTATTTAAA |  | 0.183 | 
CGACATGTCCCGCTTCTTTCATTAATCCGTTAGCAACTGTTATGATATATACATTTACCTTTTAAGAGGAGGAAT |  |  | 0.387
ACAGACGAAGGAGCCGCAAAGAAGTTATTAAGGGATGAATAAACCTTCAATATAAATATCTCTCACTTATTTAAA | 0.096 | 0.267 | 
CGACATGTCCCGCTTCTTTCATTAATCCGTTAACAACTGTTTTGCTATATAAATTTACCTTTTAAGAGGAGGAAT |  |  | 0.227
ACAGACGAAGGAGCCGCAAAGAAGTTATTAAGGGATGGATAATCCCTAAATATAAATATCTCTCACTTATTTAAA |  | 0.553 | 
ACAGACGAAGGAGCCGCAAACAAGTTATTAAGGGATGAATAATCCCTCAATAAAAATATCTCTCACTTATTTAAA |  | 0.1 | 
CGACATGTCCCGCTTCTTTCATTAACCCGTTAGTAACTGTTTTGCTATATACATTTACCTTTTAAGAGGAGGAAT |  |  | 0.255
ACAGACGAAGGAGCCGCAAATAAATTATTAAGGGATGAATAATCCCTCAATATAAATATCTCTCACTTATTTAAA | 0.807 | 0.801 | 

Sequence | cleaved RNA product abundance [1] | cleaved RNA product abundance [2] | cleaved RNA product abundance [3]
CGACATGTCCCGCTTCTTTCATTAATCCGTTAGCAACTGTTTTGCTAGATACATTTACCTTTTAAGAGGAGGAAT |  |  | 0.43
ACAGACGAAGGAGCCGCAAAGAAGTTATTAAGGGATGAATGATCCCTAAATATAAATATCTCTCACTTATTTAAA |  | 0.488 | 
ACAGACGAAGGAGCCGCAAAGAAGTTATAAAGGGGTGAATAATCCCTCAATATAAATATCTCTCACTTATTTAAA |  | 0.422 | 
CGACATGTCCCGCTTCTTTCATTAATCCGTTAGCAACTGTTTAGCTATATACATATACCTTTTAAGAGGAGGAAT |  |  | 0.539
ACAGACGAAGGAGCCGCAAAGAAGTTAATAAGGGATGAATATTCCCTCAATATAAATATCTCTCACTTATTTAAA | 0.246 | 0.279 | 
CGACATGTCCCGCTTCTTTCATTAATCCAATAGCAACTGTTTTGCTATATACATTTACCTTTTAAGAGGAGGAAT |  |  | 0.553
ACAGACGAAGGAGCCGCAAAGAAGTTATTAAGAGATGAATAATCCCTCAATATAGATATCTCTCACTTATTTAAA |  | 0.147 | 
CGACATGTCCCGCTTCTTTCATTAATCCGTGAGCAACTGTTTTGCTATATTCATTTACCTTTTAAGAGGAGGAAT |  |  | 0.177
ACAGACGAAGGAGCCGCAAAGAAGTTAGTAAGGAATGAATAATCCCTCAATATAAATATCTCTCACTTATTTAAA | 0.0912 |  | 
CGACATGTCCCGCTTCTTTCATTAATCCGTTAGCAAATGTTTTGCTATATACATTTAACTTTTAAGAGGAGGAAT |  |  | 1.03
CGACATGTCCCGCTTCTTTCATTAATCCGTTAGCAACTGTTGTGCTAAATACATTTACCTTTTAAGAGGAGGAAT |  |  | 0.266
CGACATGTCCCGCTTCTTTCATTAATGCGTTAACAACTGTTTTGCTATATACATTTACCTTTTAAGAGGAGGAAT |  |  | 0.228
ACAGACGAAGGAGCCGCATAGAAGTTATTAAGGGATAAATAATCCCTCAATATAAATATCTCTCACTTATTTAAA | 1.03 | 0.861 | 
CGACATGTCCCGCTTCTTTCATTAATCCGTTAGCAAGTGATTTGCTATATACATTTACCTTTTAAGAGGAGGAAT |  |  | 1.25
ACAGACGAAGGAGCCGCCAAGAAGTTATTAAGGGATGAATAATCCTTCAATATAAATATCTCTCACTTATTTAAA | 0.518 | 0.531 | 
ACAGACGAAGGAGCCGCACAGAAGTTATCAAGGGATGAATAATCCCTCAATATAAATATCTCTCACTTATTTAAA |  | 0.365 | 
ACAGACGAAGGAGCCGCAAAGAAGTTATTAAGGGATAAATTATCCCTCAATATAAATATCTCTCACTTATTTAAA | 1.07 | 1.03 | 
ACAGACGAAGGAGCCGCAAAGAAGTTATTAAGGGACGAATAATCACTCAATATAAATATCTCTCACTTATTTAAA |  | 0.0856 | 
ACAGACGAAGGAGCCGCAAAGAAGTTATTAAGGGATCAATAATCCCTCAATTTAAATATCTCTCACTTATTTAAA | 0.197 |  | 
CGACATGTCCCGCTTCTTTCATTATTCCGTTAGCAACTGTTTTGCTATATACGTTTACCTTTTAAGAGGAGGAAT |  |  | 0.645

Sequence | cleaved RNA product abundance [1] | cleaved RNA product abundance [2] | cleaved RNA product abundance [3]
ACAGACGAAGGAGCCGCAGAAAAGTTATTAAGGGATGAATAATCCCTCAATATAAATATCTCTCACTTATTTAAA | 1.14 | 1.24 | 
ACAGACGAAGGAGCCGCAAAGAAGTTATTAAAGGATGAATAATCCCTCAATATGAATATCTCTCACTTATTTAAA | 0.094 | 0.0586 | 
ACAGACGAAGGAGCCGCAGAGAAGTTATTAAGGGATGAATAATCCGTCAATATAAATATCTCTCACTTATTTAAA |  | 0.294 | 
ACAGACGAAGGAGCCGCAAATAAGTTATTATGGGATGAATAATCCCTCAATATAAATATCTCTCACTTATTTAAA |  | 0.365 | 
ACAGACGAAGGAGCCGCAAAGAACTTATTAAGAGATGAATAATCCCTCAATATAAATATCTCTCACTTATTTAAA | 0.092 | 0.147 | 
CGACATGTCCCGCTTCTTTCATTAATCGGTTAGCAACTGTTTTGCTATATATATTTACCTTTTAAGAGGAGGAAT |  |  | 0.947
ACAGACGAAGGAGCCGCACAGAAGTTATTAAGGGATGAATAATCCCTCAACATAAATATCTCTCACTTATTTAAA | 0.198 | 0.294 | 
ACAGACGAAGGAGCCGCAAAGAAGTTATTAAGGGAGGAATAAACCCTCAATATAAATATCTCTCACTTATTTAAA |  | 0.382 | 
ACAGACGAAGGAGCCGCAAAGAAGTGATTAATGGATGAATAATCCCTCAATATAAATATCTCTCACTTATTTAAA | 0.0996 | 0.108 | 
ACAGACGAAGGAGCCGCAAAGAAATTATTAAGGGATGAATAATCCCTCAATATACATATCTCTCACTTATTTAAA |  | 0.46 | 
ACAGACGAAGGAGCCGCTAAGAAATTATTAAGGGATGAATAATCCCTCAATATAAATATCTCTCACTTATTTAAA | 0.556 |  | 
CGACATGTCCCGCTTCTTTCATTACTCCGTTAGCTACTGTTTTGCTATATACATTTACCTTTTAAGAGGAGGAAT |  |  | 0.923
ACAGACGAAGGAGCCGCAAAGAAGTTATTAATGGATCAATAATCCCTCAATATAAATATCTCTCACTTATTTAAA | 0.0839 | 0.127 | 
ACAGACGAAGGAGCCGCAAAGAAGTTATTAAGTTATGAATAATCCGTCAATATAAATATCTCTCACTTATTTAAA | 0.078 |  | 
ACAGACGAAGGAGCCGCAAAGAAGTTAATAAGGGATGCATAATCCCTCAATATAAATATCTCTCACTTATTTAAA |  | 0.301 | 
ACAGACGAAGGAGCCGCAAAGACGTTATTAAGCGATGAATAATCCCTCAATATAAATATCTCTCACTTATTTAAA |  | 0.155 | 
ACAGACGAAGGAGCCGCAAAGAAGTTATTAAGGTATGAATAATCCCTCAATAGAAATATCTCTCACTTATTTAAA |  | 0.0725 | 
ACAGACGAAGGAGCCGCAAAGAAGTTATTAAGAGATGAATTATCCCTCAATATAAATATCTCTCACTTATTTAAA | 0.102 | 0.183 | 
ACAGACGAAGGAGCCGCAATGAAGTTATTAAGGGATGAATAATCCCACAATATAAATATCTCTCACTTATTTAAA |  | 0.367 | 
